From patent US7271172B2, “Pyrrolidine and azetidine compounds as CCR5 antagonists” (SmithKline Beecham Corporation, priority 2002, dated 2007)

Molecular target: T1, human CCR5 chemokine receptor (Homo sapiens, UniProt P51681)
T1 construct: host or cells: Chinese Hamster Ovary (CHO) cells; membranes prepared from the cell pellet
Assay: CC-Chemokine Receptor-5 Binding by Scintillation Proximity Assay (CCR5 SPA), displacement of [125I]MIP1α
Conditions: standard compound, 14-point concentration-response curve in triplicate, starting concentration 1 μM
Protocol: CC-Chemokine Receptor-5 Binding by Scintillation Proximity Assay (CCR5 SPA) Scintillation Proximity Assay for the Human CC-Chemokine Receptor, CCR-5
This protocol describes a high-throughput screen using SPA binding to identify compounds that inhibit binding of ^125-MIP1α to the human CCR5 chemokine receptor.
Human CCR5 receptors were expressed in Chinese Hamster Ovary (CHO) cells, registration # 12025. Cells were grown in suspension and a 50 to 80 ml CCR5 cell pellet was prepared. […]
The saturation curve binding experiment is performed by adding varying amounts of [^125I]MIP1α (0-8.5 nM to membranes and beads in concentrations chosen from the optimal protein/bead ratio. The data is analyzed using a non-linear curve-fitting program. The Kd and Bmax are derived from the curve. […]

T1 sequence (P51681 whole entry): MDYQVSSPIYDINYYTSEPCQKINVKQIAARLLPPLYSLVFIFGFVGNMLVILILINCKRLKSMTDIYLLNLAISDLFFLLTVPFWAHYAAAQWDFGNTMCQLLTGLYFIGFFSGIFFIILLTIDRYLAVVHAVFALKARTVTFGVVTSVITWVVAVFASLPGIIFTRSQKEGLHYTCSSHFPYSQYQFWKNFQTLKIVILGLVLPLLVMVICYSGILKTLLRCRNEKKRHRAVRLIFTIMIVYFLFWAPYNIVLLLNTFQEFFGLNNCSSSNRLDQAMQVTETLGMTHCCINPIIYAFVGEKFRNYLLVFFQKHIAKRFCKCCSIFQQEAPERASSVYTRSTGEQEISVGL

average historical pKi: 7.6
Substance: MIP1α: natural chemokine ligand of CCR5; standard compound of the CCR5 SPA binding assay
